Laboratory results published in PMC4333399.

How the values were obtained:
[1] = target: T1, PCG2-DBD WT (Magnaporthe oryzae, UniProt G4NA99 1-138); assay: crystal structure; two PCG2-DBD monomers per duplex; SPR (Biacore T100, steady state): 20 mM Tris pH 8.0, 150 mM NaCl, 0.005% Tween20; temperature not stated; details: protein: recombinant; tags: N-terminal 6xHis (pHAT2); chain copies: 2; blunt
[2] = target: PCG2-DBD 12-138 (Magnaporthe oryzae, UniProt G4NA99 12-138); assay: SPR; SPR (Biacore T100, steady state): 20 mM Tris pH 8.0, 150 mM NaCl, 0.005% Tween20; temperature not stated; details: protein: recombinant; tags: N-terminal 6xHis; chain copies: 2; label: 5'-biotin on strand S2; blunt
[3] = target: PCG2-DBD 1-128 (Magnaporthe oryzae, UniProt G4NA99 1-128); assay: as above; details: protein: recombinant; tags: N-terminal 6xHis; label: 5'-biotin on strand S2; blunt
[4] = target: PCG2-DBD 12-128 (Magnaporthe oryzae, UniProt G4NA99 12-128); assay: as above; details: protein: recombinant; tags: N-terminal 6xHis; label: 5'-biotin on strand S2; blunt
[5] = target: T1, PCG2-DBD WT; assay: as above; details: protein: recombinant; tags: N-terminal 6xHis (pHAT2); chain copies: 2; label: 5'-biotin on strand S2; blunt

B1: MCB1 DNA (crystal) (dsDNA)
DNA 1: CAATGACGCGTAAG
DNA 2: CTTACGCGTCATTG
binding result [1]: binds

B2: MCB1 DNA (SPR) (dsDNA)
DNA 1: CTTACGCGTCATTG
DNA 2: CAATGACGCGTAAG
Kd [2]: 1.37 ± 0.45 µM | Kd [3]: 29.8 ± 6.3 µM | Kd [4]: 48.3 ± 5.2 µM | Kd [5]: 0.81 ± 0.03 µM
